Measurements reported in patent US20160264649A1.

What was measured:
Experiment in all cases: cell-based or functional assay
[1] = target: HIV-1 Env of isolate 92UG001 (subtype D) (HIV-1)
[2] = target: HIV-1 Env of isolate 92UG005 (subtype D) (HIV-1)
[3] = target: HIV-1 Env of isolate 92UG024 (subtype D) (HIV-1)
[4] = target: HIV-1 Env of isolate 92UG046 (subtype D) (HIV-1)
[5] = target: HIV-1 Env of isolate 98CN006 (subtype CRF08_BC) (HIV-1)
[6] = target: HIV-1 Env of isolate 98CN009 (subtype CRF07_BC) (HIV-1)
[7] = target: HIV-1 Env of pseudovirus isolate MGRM-G-001 (subtype G) (HIV-1)
[8] = target: HIV-1 Env of pseudovirus isolate MGRM-G-004 (subtype G) (HIV-1)
[9] = target: HIV-1 Env of pseudovirus isolate MGRM-G-006 (subtype G) (HIV-1)
[10] = target: HIV-1 Env of pseudovirus isolate MGRM-G-009 (subtype G) (HIV-1)
[11] = target: HIV-1 Env of pseudovirus isolate MGRM-G-011 (subtype G) (HIV-1)
[12] = target: HIV-1 Env of pseudovirus isolate MGRM-G-013 (subtype G) (HIV-1)
[13] = target: HIV-1 Env of pseudovirus isolate MGRM-G-014 (subtype G) (HIV-1)
[14] = target: HIV-1 Env of pseudovirus isolate MGRM-G-015 (subtype G) (HIV-1)
[15] = target: HIV-1 Env of pseudovirus isolate MGRM-G-016 (subtype G) (HIV-1)
[16] = target: HIV-1 Env of pseudovirus isolate MGRM-G-017 (subtype G) (HIV-1)
[17] = target: HIV-1 Env of pseudovirus isolate MGRM-G-019 (subtype G) (HIV-1)
[18] = target: HIV-1 Env of pseudovirus isolate MGRM-G-024 (subtype G) (HIV-1)
[19] = target: HIV-1 Env of pseudovirus isolate MGRM-G-025 (subtype G) (HIV-1)
[20] = target: HIV-1 Env of pseudovirus isolate MGRM-G-027 (subtype G) (HIV-1)
[21] = target: HIV-1 Env of pseudovirus isolate MGRM-G-028 (subtype G) (HIV-1)
[22] = target: envelope of aMLV pseudovirus (negative control)

PGT-145 (antibody), sequence (VH): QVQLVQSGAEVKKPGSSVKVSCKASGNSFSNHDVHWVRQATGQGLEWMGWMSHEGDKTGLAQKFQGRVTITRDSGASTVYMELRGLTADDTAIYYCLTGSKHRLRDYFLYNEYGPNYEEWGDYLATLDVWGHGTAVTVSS
PGT-145 (antibody), sequence (VL): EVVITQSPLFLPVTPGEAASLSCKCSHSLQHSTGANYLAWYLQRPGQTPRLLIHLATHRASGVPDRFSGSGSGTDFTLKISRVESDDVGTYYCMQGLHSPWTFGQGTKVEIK
PGT-144 (antibody), sequence (VH): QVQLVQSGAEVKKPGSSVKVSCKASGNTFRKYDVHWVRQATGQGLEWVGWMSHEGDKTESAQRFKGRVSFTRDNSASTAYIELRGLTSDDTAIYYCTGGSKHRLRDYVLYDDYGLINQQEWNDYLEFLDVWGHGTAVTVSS
PGT-144 (antibody), sequence (VL): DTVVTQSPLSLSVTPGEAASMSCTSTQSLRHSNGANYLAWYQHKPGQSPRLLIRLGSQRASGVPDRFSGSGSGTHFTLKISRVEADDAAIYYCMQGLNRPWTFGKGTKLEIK
PGT-143 (antibody), sequence (VH): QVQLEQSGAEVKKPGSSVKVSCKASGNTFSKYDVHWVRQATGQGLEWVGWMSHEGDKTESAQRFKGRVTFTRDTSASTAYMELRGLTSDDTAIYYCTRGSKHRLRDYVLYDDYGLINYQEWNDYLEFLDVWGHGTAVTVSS
PGT-143 (antibody), sequence (VL): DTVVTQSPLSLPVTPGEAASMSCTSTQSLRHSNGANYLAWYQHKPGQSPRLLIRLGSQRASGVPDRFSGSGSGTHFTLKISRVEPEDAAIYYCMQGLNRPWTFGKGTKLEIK

| Substance | IC50 (neutralization) [1] | IC50 (neutralization) [2] | IC50 (neutralization) [3] | IC50 (neutralization) [4] | IC50 (neutralization) [5] | IC50 (neutralization) [6] | IC50 [7] | IC50 [8] | IC50 [9] | IC50 [10] | IC50 [11] | IC50 [12] | IC50 [13] | IC50 [14] | IC50 [15] | IC50 [16] | IC50 [17] | IC50 [18] | IC50 [19] | IC50 [20] | also measured |
| --- | --- | --- | --- | --- | --- | --- | --- | --- | --- | --- | --- | --- | --- | --- | --- | --- | --- | --- | --- | --- | --- |
| PGT-143 (antibody) | > 50 µg/mL | > 50 µg/mL | > 50 µg/mL | > 50 µg/mL | > 50 µg/mL | 10.2 µg/mL | 0.423 µg/mL | > 50 µg/mL | 0.031 µg/mL | 2.97 µg/mL | 0.074 µg/mL | > 50 µg/mL | 0.107 µg/mL | > 50 µg/mL | 7.6 µg/mL | 0.107 µg/mL | 4.77 µg/mL | 0.048 µg/mL | > 50 µg/mL | > 50 µg/mL | IC50 [21]: 43 µg/mL; IC50 [22]: > 50 µg/mL |
| PGT-144 (antibody) | > 50 µg/mL | > 50 µg/mL | > 50 µg/mL | > 50 µg/mL | > 50 µg/mL | > 50 µg/mL | > 50 µg/mL | > 50 µg/mL | 3.84 µg/mL | > 50 µg/mL | 1.58 µg/mL | > 50 µg/mL | 0.562 µg/mL | > 50 µg/mL | > 50 µg/mL | 9.97 µg/mL | > 50 µg/mL | 7.92 µg/mL | > 50 µg/mL | > 50 µg/mL | IC50 [21]: > 50 µg/mL; IC50 [22]: > 50 µg/mL |
| PGT-145 (antibody) | > 50 µg/mL | > 50 µg/mL | 1.6 µg/mL | > 50 µg/mL | > 50 µg/mL | 0.136 µg/mL | 0.028 µg/mL | > 50 µg/mL | 0.286 µg/mL | 0.982 µg/mL | 0.028 µg/mL | > 50 µg/mL | 0.144 µg/mL | 10.5 µg/mL | 0.081 µg/mL | 0.205 µg/mL | 0.041 µg/mL | 0.06 µg/mL | > 50 µg/mL | 0.433 µg/mL | IC50 [21]: 0.046 µg/mL; IC50 [22]: > 50 µg/mL |
